For test [1], the target named is low density lipoprotein receptor-related protein (LRP) on rat MH1C1 hepatoma cells (rat). The experiment in a line: competition of 125I-t-PA binding to MH1C1 cells by recombinant rat 39 kDa protein.
Test [2] has the same target. The experiment in a line: competition of 125I-t-PA binding to MH1C1 cells.
Test [3] has the same target. The test is described as follows: saturation binding to MH1C1 cells, Scatchard; simultaneous assays, n=4.
The target is the same in test [4]. The experiment in a line: saturation binding to MH1C1 cells, Scatchard; summary of 7 experiments.
Test [5] has the same target. The experiment in a line: saturation binding to MH1C1 cells pre-incubated with 0.1% saponin, Scatchard; n=3 (ligand label as printed, doubtful).
Test [6] has the same target. The experiment in a line: competition of 4 nM 125I-t-PA binding to MH1C1 cells; buffer alone exhibited 20-30% inhibition.
In test [7] the target is low density lipoprotein receptor-related protein (LRP) on human hepatoma HepG2 cells (human) (UniProt Q07954).
For test [8] the target is unchanged. The source holds these as a separate data set.
The target in test [9] is low density lipoprotein receptor-related protein (LRP) on rat MH1C1 hepatoma cells (rat).
Test [10] has the same target. The experiment in a line: saturation binding to untreated MH1C1 cells, Scatchard; n=3.
The target is the same in test [11]. The test is described as follows: competition of 3 nM 125I-t-PA binding to MH1C1 cells at 4 C.
In test [12] the target is T1, low density lipoprotein receptor-related protein (LRP) on human hepatoma HepG2 cells (human, UniProt Q07954). The test is described as follows: saturation binding to HepG2 cells at 4 C, Scatchard; one experiment. Here is the method: (§1) Cells were seeded into multiwell (12 wells/plate) disposable plastic tissue culture plates 2 days prior to assay. Ligand binding buffer for t-PA was composed of phosphate-buffered saline (PBS) supplemented with 0.2 mM CaCl_2 and 10 mM EACA, whereas PBSc (PBS containing 1 mM CaCl_2 and 0.5 mM MgCl_2) was used for 39 kDa protein binding. Binding experiments were performed at 4° C. to prevent possible concomitant internalization during the binding interval. Cell monolayers were washed three times on ice with prechilled binding buffer. Binding was initiated by adding 0.5 ml binding buffer containing selected concentrations of ^125I-labelled ligand in the absence or presence of an excess unlabelled ligand (1 μM). After incubation at 4° C. for 1.5 hours, buffer containing unbound ligand was removed. Cells were then washed three times with binding buffer and lysed in 0.0625M Tris-HCl, pH 6.8, containing 0.2% (w/v) SDS and 10% (v/v) glycerol ("low-SDS lysis buffer"). Radioactivity of cell lysates was quantified by γ scintillation spectrometry. For some experiments, cell lysates were further analyzed by SDS-PAGE and autoradiography as described below. Total binding was determined in the presence of ^125I-labelled ligand alone. Nonspecific binding was determined in the presence of excess unlabelled ligand. Specific ligand binding was defined as the difference between total and nonspecific binding. […]

Test [13] concerns the target low density lipoprotein receptor-related protein (LRP) on rat MH1C1 hepatoma cells (rat). The test is described as follows: saturation binding to MH1C1 cells, Scatchard; summary of 10 experiments.
In test [14] the target is T1, low density lipoprotein …. The test is described as follows: saturation binding to HepG2 cells at 4 C, Scatchard; five experiments. Here is the method: as §1
The target of test [15] is low density lipoprotein receptor-related protein (LRP) on rat MH1C1 hepatoma cells (rat). The test is described as follows: competition of 4 nM 125I-t-PA binding to MH1C1 cells, protein eluted from PVDF.
For test [16] the target is unchanged. The test is described as follows: saturation binding of 125I-ligand to MH1C1 cells at 4 C, Scatchard analysis (one experiment, FIG. 1A).
For test [17] the target is unchanged. The experiment in a line: competition of 4 nM 125I-t-PA binding to MH1C1 cells, fragment eluted from PVDF.

Results on five molecules are retold here after patent publication US5474766, “Methods and compositions for inhibition of hepatic clearance of tissue-type plasminogen activator” (Washington University, dated 1995).

Where only a bound is given, the exact number is not on record here.

As usually defined, the Ki is the dissociation constant of the complex between target and ligand, obtained from inhibition or displacement. For “rat 39 kDa protein (from UniProt Q99068) (ligand)”, the inhibitory constant (Ki) in [1] stood at 0.5 nM.

The term Kd denotes the equilibrium constant for the complex coming apart. High values mean weaker binding, low ones tighter binding. In test [2], “tissue-type plasminogen activator (t-PA) (from UniProt P00750) (enzyme)” yielded an inhibition constant Ki of 8 nM. For the same molecule, the equilibrium dissociation constant (Kd) in test [3] was found to be 5.6 nM; in test [4], 4.9 nM; in [5], 9.1 nM.

B1: 20 kDa N-terminal fragment of the 39 kDa protein (ligand)
chain: YSREKNQPKPSPKRESGEEFRMEKLNQLWEKAQRLHLPPVRLAELHADLKIQERDELAWKKLKLDGLDEDGEKEARLIRNLNVILAKYGLDGKKDARQVTSNSLSGTQEDGLDD
As for B1, the percent inhibition at 16 nM in test [6] amounted to 10%.

B2: 39 kDa protein (ligand)
chain: YSREKNQPKPSPKRESGEEFRMEKLNQLWEKAQRLHLPPVRLAELHADLKIQERDELAWKKLKLDGLDEDGEKEARLIRNLNVILAKYGLDGKKDARQVTSNSLSGTQEDGLDDPRLEKLWHKAKTSGKFSGEELDKLWREFLHHKEKVHEYNVLLETLSRTEEIHENVISPSDLSDIKGSVLHSRHTELKEKLRSINQGLDRLRRVSHQGYSTEAEFEEPRVIDLWDLAQSANLTDKELEAFREELKHFEAKIEKHNHYQKQLEIAHEKLRHAESVGDGERVSRSREKHALLEGRTKELGYTVKKHLQDLSGRISRARHNEL
As usually defined, the IC50 is the concentration that gives 50% inhibition. High values mean a need for much substance, low ones inhibition by little substance. Consider B2, for which the specific degradation of ^125 I-t-PA by HepG2 cells (TCA-soluble radioactivity) in test [7] amounted to 75%. Further, the specific ^125 I-t-PA uptake by HepG2 cells (cell-associated radioactivity) in test [8] was 70%. Moreover, the rate of ligand uptake and degradation at 37° C. (fmol/10^6 cells/minute) in [9] came to 52. Also, the dissociation constant Kd in [10] worked out at 2.7 nM; in [12], 4.9 nM; in test [3], 3.5 nM; in [13] it was 3.3 nM; in test [14] it was 5.1 nM; in [16] it was 3.2 nM. The IC50 in test [11] is below 1 nM; in [15], 1 nM. Moreover, the concentration at 90% inhibition in [15] was 8 to 10 nM.

B3: 28 kDa C-terminal fragment of the 39 kDa protein (ligand)
chain: PRLEKLWHKAKTSGKFSGEELDKLWREFLHHKEKVHEYNVLLETLSRTEEIHENVISPSDLSDIKGSVLHSRHTELKEKLRSINQGLDRLRRVSHQGYSTEAEFEEPRVIDLWDLAQSANLTDKELEAFREELKHFEAKIEKHNHYQKQLEIAHEKLRHAESVGDGERVSRSREKHALLEGRTKELGYTVKKHLQDLSGRISRARHNEL
In the case of B3, in test [17], the IC50 worked out at 4 nM and the concentration at 90% inhibition turned out to be 16 nM.
